According to US20240279345A1, “ALPHA 5 BETA 1 INTEGRIN BINDING AGENTS AND USES THEREOF” (PASITHEA THERAPEUTICS CORP., priority 2021, published 2024):
Residue numbers refer to the chain shown, from its start. Names and notes keep the numbering of the source.

B1: A2-5D10 (antibody, V domains shown)
VH: QVQLKESGPGLVAPSQSLSITCTISGFSLTSYGVHWVRQPPGKGLEWLVVIWSDGSTTYNSTLKSRLSISKDNSKSQVFLKMNSLQTDDTAMYYCARHYDYDGDWFAYWGQGTLVTVSA
VL: QILLTQSPAIMSASLGERVTMTCTASSSVSSRCLHWYQQKPGSSPKLWIYSTSNLASGVPARFRGSGSGTSYSLTISSMEAEDAATYYCHQYYRSPPTFGGGTKLEIK
notes: mouse hybridoma antibody
B2: C-14D12 IgG4 Chimera (antibody, V domains shown)
VH: QVQLKESGPDLVAPSQSLSITCTVSGFSLTDYGVHWVRQPPGKGLEWLVVIWSDGSTTYNSALKSRLSITKDTSKRQVFLKMNSLQTDDTAMYYCARHAPSFIRYGSRYDALDYWGQGTSVTVSS
VL: B1 VL with L3V, M21L, S30T, R32S, C33F, R64S, Y93H
B3: A-15B08 IgG4 Chimera (antibody, V domains shown)
VH: B1 VH with L80F
VL: B1 VL with L3V, S28R, R32N, C33S, R64S, Y93L
B4: A-15B08-T62A IgG4 Chimera (antibody, V domains shown)
VH: B1 VH with T62A, L80F
VL: B1 VL with L3V, S28R, R32N, C33S, R64S, Y93L
B5: A2-7A05 IgG4 Chimera (antibody, V domains shown)
VH: QVQLQQPGAELVKPGASVKLSCKASGYTFTIYWINWVKQRPGQGLEWIGKIYPGSISTDYNEKFKSKATLTVDTSSSTAYMQLSSLTSDDSAVYYCAITGTGGLAYWGQGTLVTVSA
VL: ENVLTQSPAIMSASLGEKVTMTCRASSSVNYMYWYQQKSDASPKLWIYFTSSLAPGVPGRFSGSGSGNSYSLTISTMEGEDAATYYCQQFTTSPFTFGSGTKLEIK
B6: A2-7A05 (antibody, V domains shown)
VH: B5 VH
VL: B5 VL
notes: mouse hybridoma antibody; also called A2-7A05 (hybridoma)
B7: A2-7F01 (antibody, V domains shown)
VH: B5 VH with K50N, I56S, D59N, S66T, L104F
VL: B5 VL with T22S, G59T, Y70F, T76S, F90L, T92G, K102R
notes: mouse hybridoma antibody

Tests used:
[1] = target: T1, purified recombinant human α5β1 integrin heterodimer, 6×His tagged (rh-α5β1); Acro Biosystems, cat. no. … (human, UniProt P08648 42-995; P05556 21-728); assay: BLI (Octet), supernatant mAb on anti-mouse IgG Fc sensor, 20 nM rh-α5β1
T1 construct: bought recombinant heterodimer; also called rh-α5β1-6×His tagged protein; His-tagged-α5β1
T1 sequence (P08648 42-995 limits assumed, form in doubt, chain 1 of 2): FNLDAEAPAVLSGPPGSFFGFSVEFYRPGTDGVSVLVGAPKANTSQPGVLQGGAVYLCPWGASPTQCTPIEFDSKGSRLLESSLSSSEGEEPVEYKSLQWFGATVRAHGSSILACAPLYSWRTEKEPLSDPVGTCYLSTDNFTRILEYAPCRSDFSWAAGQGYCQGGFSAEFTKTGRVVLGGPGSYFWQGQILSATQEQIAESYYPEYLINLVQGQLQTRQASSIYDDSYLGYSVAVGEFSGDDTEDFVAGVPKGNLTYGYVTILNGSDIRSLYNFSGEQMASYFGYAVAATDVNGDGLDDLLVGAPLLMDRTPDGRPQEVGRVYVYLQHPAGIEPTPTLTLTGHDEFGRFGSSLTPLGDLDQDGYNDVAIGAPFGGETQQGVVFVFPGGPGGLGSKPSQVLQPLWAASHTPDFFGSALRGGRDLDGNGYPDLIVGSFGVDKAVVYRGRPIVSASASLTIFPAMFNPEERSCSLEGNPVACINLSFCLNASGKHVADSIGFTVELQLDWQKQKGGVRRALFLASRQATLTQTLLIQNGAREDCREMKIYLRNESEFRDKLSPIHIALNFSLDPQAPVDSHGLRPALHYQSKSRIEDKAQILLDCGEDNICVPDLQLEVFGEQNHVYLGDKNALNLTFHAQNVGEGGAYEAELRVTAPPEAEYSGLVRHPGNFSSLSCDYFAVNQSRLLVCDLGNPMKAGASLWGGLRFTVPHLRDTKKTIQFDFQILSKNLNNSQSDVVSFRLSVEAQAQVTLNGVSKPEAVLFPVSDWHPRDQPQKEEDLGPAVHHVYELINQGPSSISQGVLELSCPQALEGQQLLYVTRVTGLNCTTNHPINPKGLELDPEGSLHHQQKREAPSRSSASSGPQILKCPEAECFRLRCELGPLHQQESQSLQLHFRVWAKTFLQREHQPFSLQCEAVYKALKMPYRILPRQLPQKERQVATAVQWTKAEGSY
T1 sequence (P05556 21-728 limits assumed, form in doubt, chain 2 of 2): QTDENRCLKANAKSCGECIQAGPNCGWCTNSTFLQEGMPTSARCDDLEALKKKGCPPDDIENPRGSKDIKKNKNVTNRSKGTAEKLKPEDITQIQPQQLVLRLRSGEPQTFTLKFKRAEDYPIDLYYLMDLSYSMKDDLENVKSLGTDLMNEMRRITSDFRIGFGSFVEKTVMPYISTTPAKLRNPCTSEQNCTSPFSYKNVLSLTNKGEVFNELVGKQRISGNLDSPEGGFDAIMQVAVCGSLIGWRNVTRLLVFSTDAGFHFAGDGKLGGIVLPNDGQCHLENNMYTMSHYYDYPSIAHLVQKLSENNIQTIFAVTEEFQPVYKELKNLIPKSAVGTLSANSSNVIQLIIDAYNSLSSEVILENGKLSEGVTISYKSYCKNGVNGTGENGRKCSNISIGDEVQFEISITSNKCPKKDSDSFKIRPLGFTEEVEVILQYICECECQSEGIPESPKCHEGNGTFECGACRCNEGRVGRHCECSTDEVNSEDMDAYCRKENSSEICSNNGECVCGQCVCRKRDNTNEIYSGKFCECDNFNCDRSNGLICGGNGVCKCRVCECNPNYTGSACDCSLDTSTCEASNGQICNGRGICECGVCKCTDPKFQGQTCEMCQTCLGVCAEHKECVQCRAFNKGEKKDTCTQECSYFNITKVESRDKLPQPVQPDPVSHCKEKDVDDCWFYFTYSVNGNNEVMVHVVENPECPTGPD
Excerpt: Anti-Mouse IgG Fc biosensors were used to load each clone supernatant. Assay steps were as follows: Sensor Check (30s)-->Load Ab (700s)-->Quench (480s)-->Baseline(480s)-->Ab Assoc. (600s)-->Dissoc. (600s).

[2] = target: T2, recombinant mouse α5β1 (rm-α5β1; R&D Systems, cat. no. 7728-A5) (mouse, UniProt P11688 45-999; P09055 21-728); assay: ELISA, coated rm-α5β1, supernatant 1:10
T2 construct: bought recombinant heterodimer
Procedure: (§1) Plates were washed 3 times with Wash Buffer (1× Tris Buffered Saline containing 0.05% Tween20), blocked with 2% BSA in 1×TBS (made from 10× Thermo Scientific Blocker BSA (10×) in TBS; Thermo Fisher Scientific, Waltham, MA, cat. no. 37520) for 2 hours at room temperature (RT) then incubated with hybridoma supernatants diluted 1:10 with Standard Diluent (2% BSA, 1×TBS, 0.05% Tween20). […] Absorbance 450 nm was measured.

[3] = target: T1, purified recombinant human α5β1 …; assay: ELISA, inhibition of rh-α5β1-His binding to coated FN, purified hybridoma mAb
Procedure: Immulon4 HBX ELISA 96-well plates were coated with FN by incubation overnight at 4° C. with 2.5 μg/mL human FN (R&D Systems, Minneapolis, MN 55413, cat. no. 1918-FN) in 1×PBS (0.01M phosphate buffer and 0.154M NaCl, pH 7.4). Plates were then washed 3 times with Wash Buffer (1× Tris Buffered Saline containing 0.05% Tween20), blocked with 2% BSA in 1×TBS for 2 hours at room temperature (RT). […] Isotype control antibody (Control Ab; Ms IgG2a EMD Millipore Corp, Billerica, MA, cat. no. PP102) was used to normalize data across different assay runs. […] Following 1 hour at RT, the wells were washed 3 times, incubated with biotinylated Anti-6×His-Tag Ab (Invitrogen, Carlsbad, CA, cat. no. MAI-21315-BTIN) at 1:1000 in Standard Diluent for 1 hour, washed 3 times, incubated for 30 minutes with poly-HRP Streptavidin (Thermo Fisher Scientific, Waltham, MA, cat. no. N200), washed 4 times, incubated with TMB substrate (Thermo Fisher Scientific, Waltham, MA, cat. no. N301) for 2-5 minutes, followed by addition of ELISA Stop Solution (Invitrogen, Carlsbad, CA, cat. no. SS04). Absorbance 450 nm was measured. Data points were normalized to the isotype Control Ab values at each concentration and reported as % Absorbance 450 nm normalized to Control Ab. Non-linear regression analysis was used to fit curves (4-parameter) to the data using GraphPad Prism version 9.0.2 (GraphPad Software, LLC, San Diego, CA).

[4] = target: T3, recombinant human α4β1 integrin (rh-α4β1; R&D Systems, cat. no. 5668-A4) (human, UniProt P13612 34-977; P05556 21-728); assay: ELISA, coated rh-α4β1, supernatant 1:10
T3 construct: bought recombinant heterodimer
T3 sequence (P13612 34-977 limits assumed, form in doubt, chain 1 of 2): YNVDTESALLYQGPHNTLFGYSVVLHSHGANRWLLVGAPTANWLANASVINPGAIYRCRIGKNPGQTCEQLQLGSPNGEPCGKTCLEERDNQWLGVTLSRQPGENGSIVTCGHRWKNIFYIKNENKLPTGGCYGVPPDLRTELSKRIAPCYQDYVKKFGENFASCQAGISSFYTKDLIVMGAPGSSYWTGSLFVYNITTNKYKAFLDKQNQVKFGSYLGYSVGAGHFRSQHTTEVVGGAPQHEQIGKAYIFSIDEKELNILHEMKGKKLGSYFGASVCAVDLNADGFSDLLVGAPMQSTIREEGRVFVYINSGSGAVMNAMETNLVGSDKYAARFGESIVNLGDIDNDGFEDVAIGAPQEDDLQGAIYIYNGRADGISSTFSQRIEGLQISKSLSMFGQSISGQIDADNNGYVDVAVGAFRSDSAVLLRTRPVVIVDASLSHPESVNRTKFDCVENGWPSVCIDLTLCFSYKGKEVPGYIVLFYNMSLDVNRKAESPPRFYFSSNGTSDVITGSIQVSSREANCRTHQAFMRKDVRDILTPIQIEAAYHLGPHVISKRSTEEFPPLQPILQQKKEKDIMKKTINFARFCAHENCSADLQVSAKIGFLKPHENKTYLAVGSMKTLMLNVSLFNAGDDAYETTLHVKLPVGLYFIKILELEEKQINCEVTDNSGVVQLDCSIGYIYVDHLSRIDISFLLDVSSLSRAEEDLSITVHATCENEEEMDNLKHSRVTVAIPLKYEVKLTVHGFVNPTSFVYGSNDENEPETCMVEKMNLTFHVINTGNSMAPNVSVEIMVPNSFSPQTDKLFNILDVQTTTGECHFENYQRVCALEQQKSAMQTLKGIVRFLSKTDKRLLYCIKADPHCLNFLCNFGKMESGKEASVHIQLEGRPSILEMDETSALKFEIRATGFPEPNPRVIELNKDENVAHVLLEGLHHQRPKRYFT
T3 sequence (P05556 21-728 limits assumed, form in doubt, chain 2 of 2): as the sequence (P05556 21-728 limits assumed, form in doubt, chain 2 of 2) above

[5] = target: T4, recombinant human α5β1 integrin (rh-α5β1; R&D Systems, cat. no. 3230-A5) (human, UniProt P08648 42-995; P05556 21-728); assay: ELISA, coated rh-α5β1, supernatant 1:10
T4 construct: bought recombinant heterodimer
T4 sequence (P08648 42-995 limits assumed, form in doubt, chain 1 of 2): as the sequence (P08648 42-995 limits assumed, form in doubt, chain 1 of 2) above
T4 sequence (P05556 21-728 limits assumed, form in doubt, chain 2 of 2): as the sequence (P05556 21-728 limits assumed, form in doubt, chain 2 of 2) above
Procedure: as §1

U87MG cell line = assay: Plate-based cell adhesion assay of U87MG cells to FN; details: antibody 3 to 0.01 μg/mL
Procedure: Cell surface α5β1 integrin receptors interact with FN to promote cellular adhesion. To test whether the human IgG4 chimeric anti-α5β1 antibodies inhibit adhesion, a plate-based cell adhesion assay was developed for use with the U87MG cell line (HTB-14™, ATCC, Manassas, VA) which is derived from a Glioblastoma tumor and is known to express α5β1 integrin. U87MG cells were grown to 80% confluence in EMEM media (ATCC, Manassas, VA, cat. no. 30-2003) supplemented with 10% Fetal Bovine Serum (FBS; ATCC, Manassas, VA, cat. no. 30-2021) in a 5% C02, 37° C. incubator. Cells were dissociated from flasks with 0.05% Trypsin, 0.02% EDTA (Lifeline Cell Technology, Frederick, MD, cat. no. CM0017), washed once with Dulbecco's 1×PBS (DPBS) Modified which contains calcium and magnesium (HyClone, Logan, UT, cat. no. SH30028-02) and resuspended in EMEM media without supplementation at a cellular concentration of 2,000,000 cells per mL. Cells were rested in the incubator for 30 minutes before mixing with a six point 1:3 dilution series of the antibodies with final concentrations ranging from 3 to 0.01 μg/mL in a 96-well polypropylene round-bottom plate. 100,000 rested cells were pre-mixed with each dilution of antibody to a final volume of 100 μL and then transferred to a Human FN coated 96-well plate (R&D Systems, Minneapolis, MN, cat. no. CWP001). The cell-antibody mixtures were incubated for 1 hour at 37° C., 5% C02. Non-adhered cells were removed from the wells by inversion of the plate on an absorbent pad, then washed 2× with 200 uL each well with 1×DPBS without Calcium and Magnesium (EMD Millipore Corp, Billerica, MA, cat. no. TMS-012-A). 100 μL 1× DPBS containing Hoechst 33342 dye (Thermo Fisher Scientific, Waltham, MA, cat. no. 62249) at the recommended dilution (1:2000) was added to each well to fluorescently stain nuclei to facilitate cell counting. Cells that remained adhered to the wells were counted using image analysis software provided by the ImageXpress Pico Automated Cell Imaging System (Molecular Devices, San Jose, CA) which is based on counting fluorescently stained nuclei, in this case using a DAPI filter to detect the Hoechst nuclear staining. Non-linear regression analysis was used to fit curves (4-parameter) to the data using GraphPad Prism version 9.0.2 (GraphPad Software, LLC, San Diego, CA).

[6] = target: α5β1 integrin on U87MG cells (human, UniProt P08648 42-1049; P05556 21-798); assay: cell-based or functional assay
α5β1 integrin on U87MG cells, sequence (P08648 42-1049 limits assumed, chain 1 of 2): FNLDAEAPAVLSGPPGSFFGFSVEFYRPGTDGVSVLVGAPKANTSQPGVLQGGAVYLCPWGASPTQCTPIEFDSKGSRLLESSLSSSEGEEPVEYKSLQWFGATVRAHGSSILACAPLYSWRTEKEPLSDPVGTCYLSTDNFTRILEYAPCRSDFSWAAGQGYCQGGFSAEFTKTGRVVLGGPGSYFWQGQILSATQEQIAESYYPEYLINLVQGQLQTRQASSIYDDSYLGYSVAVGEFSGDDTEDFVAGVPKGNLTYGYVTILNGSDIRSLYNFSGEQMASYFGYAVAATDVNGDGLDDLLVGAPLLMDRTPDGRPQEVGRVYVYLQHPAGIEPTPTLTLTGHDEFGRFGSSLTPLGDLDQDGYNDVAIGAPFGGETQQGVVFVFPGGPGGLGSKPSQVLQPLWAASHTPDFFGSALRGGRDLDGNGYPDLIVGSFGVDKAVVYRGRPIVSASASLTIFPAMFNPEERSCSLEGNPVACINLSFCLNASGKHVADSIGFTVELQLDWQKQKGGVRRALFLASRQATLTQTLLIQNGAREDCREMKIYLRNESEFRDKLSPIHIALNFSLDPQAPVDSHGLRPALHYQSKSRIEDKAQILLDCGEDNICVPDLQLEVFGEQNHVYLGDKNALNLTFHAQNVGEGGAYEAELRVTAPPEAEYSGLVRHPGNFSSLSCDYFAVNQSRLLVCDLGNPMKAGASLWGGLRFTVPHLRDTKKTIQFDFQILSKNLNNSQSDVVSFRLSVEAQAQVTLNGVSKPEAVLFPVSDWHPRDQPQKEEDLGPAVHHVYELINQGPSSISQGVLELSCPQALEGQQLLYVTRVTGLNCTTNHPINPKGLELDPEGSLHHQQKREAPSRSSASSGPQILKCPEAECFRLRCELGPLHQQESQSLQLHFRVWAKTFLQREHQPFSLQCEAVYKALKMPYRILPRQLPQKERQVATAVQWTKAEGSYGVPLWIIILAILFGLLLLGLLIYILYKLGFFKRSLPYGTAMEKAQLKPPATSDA
α5β1 integrin on U87MG cells, sequence (P05556 21-798 limits assumed, chain 2 of 2): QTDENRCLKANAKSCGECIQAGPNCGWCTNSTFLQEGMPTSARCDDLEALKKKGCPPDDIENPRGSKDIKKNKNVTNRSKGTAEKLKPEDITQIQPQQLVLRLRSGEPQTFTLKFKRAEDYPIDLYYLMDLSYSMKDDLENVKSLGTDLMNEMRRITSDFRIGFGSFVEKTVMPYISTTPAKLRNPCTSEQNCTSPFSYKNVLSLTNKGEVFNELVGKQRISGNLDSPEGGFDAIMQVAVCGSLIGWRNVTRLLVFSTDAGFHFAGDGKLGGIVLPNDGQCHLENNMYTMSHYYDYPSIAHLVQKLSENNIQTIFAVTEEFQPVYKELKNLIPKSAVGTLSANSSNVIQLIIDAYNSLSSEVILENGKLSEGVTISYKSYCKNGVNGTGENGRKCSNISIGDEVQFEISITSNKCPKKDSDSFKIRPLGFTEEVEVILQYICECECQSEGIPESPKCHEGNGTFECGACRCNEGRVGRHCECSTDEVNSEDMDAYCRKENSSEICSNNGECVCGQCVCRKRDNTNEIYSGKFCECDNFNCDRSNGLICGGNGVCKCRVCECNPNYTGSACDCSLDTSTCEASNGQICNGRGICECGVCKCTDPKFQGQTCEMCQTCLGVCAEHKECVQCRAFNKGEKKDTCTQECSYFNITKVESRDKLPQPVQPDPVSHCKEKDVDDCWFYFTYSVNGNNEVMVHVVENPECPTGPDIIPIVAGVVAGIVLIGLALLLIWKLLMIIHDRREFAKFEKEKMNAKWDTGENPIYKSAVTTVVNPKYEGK

Molecule | Kd [1] [nM] | koff [1] [s⁻¹] | kon [1] [M⁻¹ s⁻¹] | Absorbance 450 nm [2] | % Max Inhibition [3] [%] | Absorbance 450 nm [4] | Absorbance 450 nm [5] | IC50 (U87MG cell line) [µg/mL] | % Inhibition [6] [%] | Cell Counts (Curve Bottom) [6] [cells] | Cell Counts (Curve Top) [6] [cells]
B1 | 2.32 | 0.00161 | 693000 | 0.0647 | 93 | 0.0683 | 2.31 |  |  |  | 
B2 |  |  |  |  |  |  |  | 0.14 |  |  | 
B3 |  |  |  |  |  |  |  | 0.12 |  |  | 
B4 |  |  |  |  |  |  |  | 0.15 | 82 | 6320 | 35400
B5 |  |  |  |  |  |  |  | 0.27 | 25 | 28800 | 38200
B6 | 0.8 | 0.000178 | 222000 | 0.0682 | 41 | 0.0713 | 2.05 |  |  |  | 
B7 | 1.3 | 0.000314 | 242000 | 0.0563 | 60 | 0.0617 | 2.03 |  |  |  | 
